Experimental data reported in US20240425876A1 (CHIGENOVO, published 2024).

B1: N-terminal truncated version (aa 1-1347) of ABCA4 with an HA tag at its C-terminus (other)
chain: MGFVRQIQLLLWKNWTLRKRQKIRFVVELVWPLSLFLVLIWLRNANPLYSHHECHFPNKAMPSAGMLPWLQGIFCNVNNPCFQSPTPGESPGIVSNYNNSILARVYRDFQELLMNAPESQHLGRIWTELHILSQFMDTLRTHPERIAGRGIRIRDILKDEETLTLFLIKNIGLSDSVVYLLINSQVRPEQFAHGVPDLALKDIACSEALLERFIIFSQRRGAKTVRYALCSLSQGTLQWIEDTLYANVDFFKLFRVLPTLLDSRSQGINLRSWGGILSDMSPRIQEFIHRPSMQDLLWVTRPLMQNGGPETFTKLMGILSDLLCGYPEGGGSRVLSFNWYEDNNYKAFLGIDSTRKDPIYSYDRRTTSFCNALIQSLESNPLTKIAWRAAKPLLMGKILYTPDSPAARRILKNANSTFEELEHVRKLVKAWEEVGPQIWYFFDNSTQMNMIRDTLGNPTVKDFLNRQLGEEGITAEAILNFLYKGPRESQADDMANFDWRDIFNITDRTLRLVNQYLECLVLDKFESYNDETQLTQRALSLLEENMFWAGVVFPDMYPWTSSLPPHVKYKIRMDIDVVEKTNKIKDRYWDSGPRADPVEDFRYIWGGFAYLQDMVEQGITRSQVQAEAPVGIYLQQMPYPCFVDDSFMIILNRCFPIFMVLAWIYSVSMTVKSIVLEKELRLKETLKNQGVSNAVIWCTWFLDSFSIMSMSIFLLTIFIMHGRILHYSDPFILFLFLLAFSTATIMLCFLLSTFFSKASLAAACSGVIYFTLYLPHILCFAWQDRMTAELKKAVSLLSPVAFGFGTEYLVRFEEQGLGLQWSNIGNSPTEGDEFSFLLSMQMMLLDAAVYGLLAWYLDQVFPGDYGTPLPWYFLLQESYWLGGEGCSTREERALEKTEPLTEETEDPEHPEGIHDSFFEREHPGWVPGVCVKNLVKIFEPCGRPAVDRLNITFYENQITAFLGHNGAGKTTTLSILTGLLPPTSGTVLVGGRDIETSLDAVRQSLGMCPQHNILFHHLTVAEHMLFYAQLKGKSQEEAQLEMEAMLEDTGLHHKRNEEAQDLSGGMQRKLSVAIAFVGDAKVVILDEPTSGVDPYSRRSIWDLLLKYRSGRTIIMSTHHMDEADLLGDRIAIIAQGRLYCSGTPLFLKNCFGTGLYLTLVRKMKNIQSQRKGSEGTCSCSSKGFSTTCPAHVDDLTPEQVLDGDVNELMDVVLHHVPEAKLVECIGQELIFLLPNKNFKHRAYASLFRELEETLADLGLSSFGISDTPLEEIFLKVTEDSDSGPLFAGGAQQKRENVNPRHPCLGPREKAGQTPQDSNVCSPGAPAAHPEGQPPPEPECPGPQLNTG
notes: Expressed in HEK293 cells from a codon-optimized CDS; tested in cell lysate; also called N1347; not shown: hemagglutinin (HA) tag linked to the C-terminus
B2: C-terminal truncated version (aa 1348-2273) of ABCA4 with a Flag tag at its C-terminus (other)
chain: TQLVLQHVQALLVKRFQHTIRSHKDFLAQIVLPATFVFLALMLSIVIPPFGEYPALTLHPWIYGQQYTFFSMDEPGSEQFTVLADVLLNKPGFGNRCLKEGWLPEYPCGNSTPWKTPSVSPNITQLFQKQKWTQVNPSPSCRCSTREKLTMLPECPEGAGGLPPPQRTQRSTEILQDLTDRNISDFLVKTYPALIRSSLKSKFWVNEQRYGGISIGGKLPVVPITGEALVGFLSDLGRIMNVSGGPITREASKEIPDFLKHLETEDNIKVWFNNKGWHALVSFLNVAHNAILRASLPKDRSPEEYGITVISQPLNLTKEQLSEITVLTTSVDAVVAICVIFSMSFVPASFVLYLIQERVNKSKHLQFISGVSPTTYWVTNFLWDIMNYSVSAGLVVGIFIGFQKKAYTSPENLPALVALLLLYGWAVIPMMYPASFLFDVPSTAYVALSCANLFIGINSSAITFILELFENNRTLLRFNAVLRKLLIVFPHFCLGRGLIDLALSQAVTDVYARFGEEHSANPFHWDLIGKNLFAMVVEGVVYFLLTLLVQRHFFLSQWIAEPTKEPIVDEDDDVAEERQRIITGGNKTDILRLHELTKIYPGTSSPAVDRLCVGVRPGECFGLLGVNGAGKTTTFKMLTGDTTVTSGDATVAGKSILTNISEVHQNMGYCPQFDAIDELLTGREHLYLYARLRGVPAEEIEKVANWSIKSLGLTVYADCLAGTYSGGNKRKLSTAIALIGCPPLVLLDEPTTGMDPQARRMLWNVIVSIIREGRAVVLTSHSMEECEALCTRLAIMVKGAFRCMGTIQHLKSKFGDGYIVTMKIKSPKDDLLPDLNPVEQFFQGNFPGSVQRERHYNMLQFQVSSSSLARIFQLLLSHKDSLLIEEYSVTQTTLDQVFVNFAKQQTESHDLPLHPRAAGASRQAQD
notes: Expressed in HEK293 cells; captured on flag antibody-coupled magnetic beads; not shown: Flag tag linked to the C-terminus

Molecular target: the molecule itself
Assay: Western blot of transfected HEK293 cells
Protocol: After 48 hours, the cells were lysed. The C-terminal truncated version containing a flag tag in the cells was enriched by using flag antibody (F1804. Sigma)-coupled magnetic beads, and then the presence of the N-terminal truncated version interacting with the C-terminal truncated version was detected by western blot using an HA antibody (AE036, ABclonal).

Row | Protein | binding result
1 | B1 | binds
2 | B2 | binds
